# Measurements published in CN112851807A (BLOOD DISEASES HOSPITAL CHINESE ACADEMY OF MEDICAL SCIENCES …, dated 2021).
# Biological target: T1, 人CD123蛋白 (白细胞介素3受体α链) (human, UniProt P26951 19-378)
# T1 construct: whole, on cells; also called IL-3Rα; 3T3/CD123+
# Test: flow cytometry, PE-labelled antibody titrated on CD123-transfected 3T3 cells, fitted in GraphPad Prism 5
# T1 sequence (P26951 19-378): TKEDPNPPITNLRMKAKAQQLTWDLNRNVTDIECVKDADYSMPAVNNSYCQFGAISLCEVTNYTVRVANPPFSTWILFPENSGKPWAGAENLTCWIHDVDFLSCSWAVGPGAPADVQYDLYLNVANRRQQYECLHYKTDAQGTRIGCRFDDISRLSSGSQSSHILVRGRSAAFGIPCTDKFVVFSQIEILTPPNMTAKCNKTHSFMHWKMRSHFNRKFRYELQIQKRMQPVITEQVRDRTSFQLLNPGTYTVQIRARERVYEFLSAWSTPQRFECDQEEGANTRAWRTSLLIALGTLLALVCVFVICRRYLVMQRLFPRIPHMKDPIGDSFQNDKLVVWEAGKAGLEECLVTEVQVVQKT
row,Kd,Binder
1,2.01 nM,"抗CD123单克隆抗体8D7 (antibody, IgG1, V domains shown, Purified from ascites; also called CGMCC 18849) VH: EVQLQESGPGLVKPSQSLSLTCTVTGYSITNDYTWNWIRQFPGNKLEWMGYISFSGITSHNPSLNSRISITRDTSKNQFFLQLNSVTTEDTATYYCTRGVDFWGQGTSVTVSA VL: DIVLTQSPATLSVTPGDSVSLSCWASQSISNSLHWYQQKSHESPRLLIKFASQSISGIPSRFSGSGSGTDFTLSIDSVETEDFGMYFCQQGHTWPHTFGAGTKLELKR"
2,2.09 nM,"抗CD123单克隆抗体12H7 (antibody, IgG1, V domains shown, Purified from ascites; also called CGMCC 18847) VH: QVKLQESGPGLVKPSQSLSLTCTVTGYSITSDFAWNWVRQFPGDKLEWMGYISYSGGTNYHPSLKDRISITRDTSKNQVFLQLNSVTTEDTATYYCARGGMITPYFAYWGQGTLVTVSA VL: DVVVTQTPLSLPVSFGDQVSISCRSSQSLANSYGNTFLSWYLHKPGQSPQLLIYGISNRFSGVPDRFSGSGSGTDFTLKISTIKPEDLGIYYCLQGTHQPWTFGGGTKLEIKR"
3,2.1 nM,"抗CD123单克隆抗体6E11 (antibody, IgG1, V domains shown, Purified from ascites; also called CGMCC 18848) VH: QVQLQESGPGLVKPSQSLSLTCTVTGYSITNDFAWNWIRQFPGNKLEWMGYISFSGSTSYNPSLKGRISITRDTSKNQFFLQLNSVTTEDTATYSCARGGMITPYFSYWGQGTLVTVSA VL: DVVVTQTPLSLPVSFGDSVSISCRSSQSLANSYGNTFLSWYLHRPGQSPQLLIYGISNRFSGVPDRFSGSGSGTDFTLKISSIKPEDLGVYYCLQGTHQPWTFGGGTKLEIKR"
